B1: Hairpin Ribozyme (parent)
chain: GUCCUCUUUCACGUGCGCGUGAAAGAGAGAAGUGAACCAGAGAAACACACGUUGUGGUAUAUUACCUGGUA

Variants of: B1
Test: self-cleavage, relative activity (ratio to wild type); higher = more cleavage; co-transcriptional

Variant | self-cleavage
GUCCUCUUUCACGUCCGCGUGAAAGAGAGAAGUGAACCAGAGAAACACACGUUAUGGUAUAUUACCUGGUA [G15C G54A] | 0.532
GUCCUCUUUCACGUCCGCGUGAAAGAGAGAAGUGAACCAGAGAAACACACGUUCUGGUAUAUUACCUGGUA [G15C G54C] | 0.404
GUCCUCUUUCACGUUCGCGUGAAAGGGAGAAGUGAACCAGAGAAACACACGUUGUGGUAUAUUACCUGGUA [G15U A26G] | 0.895
GUCCUCUUUCACGUCCGCGUGAAAGAGAGAAGUGAACCAGAGAAAGACACGUUGUGGUAUAUUACCUGGUA [G15C C46G] | 0.0585
GUCCUCUUUCACGUCCGCGUGAAAGAGAGAAGUGAACCAGAGAAACACACGUUGUGGUAUAUCACCUGGUA [G15C U63C] | 0.13
GUCCUCUUUCACGUUCGCGUGAAAGAGCGAAGUGAACCAGAGAAACACACGUUGUGGUAUAUUACCUGGUA [G15U A28C] | 0.619
GUCCUCUUUCACGUUCGCGUGAAAGAGGGAAGUGAACCAGAGAAACACACGUUGUGGUAUAUUACCUGGUA [G15U A28G] | 1.16
GUCCUCUUUCACGUCCGCGUGAAAGAGAGAAGUGAACCAGAGAAACACCCGUUGUGGUAUAUUACCUGGUA [G15C A49C] | 0.101
GUCCUCUUUCACGUCCGCGUGAAAGAGAGAAGUGAACCAGAGAAACACUCGUUGUGGUAUAUUACCUGGUA [G15C A49U] | 0.102
GUCCUCUUUCACGUCCGCGUGAAAGAGAGAAGUGAACCAGAGAAACACGCGUUGUGGUAUAUUACCUGGUA [G15C A49G] | 0.523
GUCCUCUUUCACGUCCGCGUGAAAGAGAGAAGUGAACCAGAGAAACACACGUGGUGGUAUAUUACCUGGUA [G15C U53G] | 0.695
GUCCUCUUUCACGUCCGCGUGAAAGAGAGAAGUGAACCAGAGAAACACACGUCGUGGUAUAUUACCUGGUA [G15C U53C] | 1.02
GUCCUCUUUCACGUCCGCGUGAAAGAGAGAAUUGAACCAGAGAAACACACGUUGUGGUAUAUUACCUGGUA [G15C G32U] | 0.113
GUCCUCUUUCACGUCCGCGUGAAAGAGAGAAAUGAACCAGAGAAACACACGUUGUGGUAUAUUACCUGGUA [G15C G32A] | 0.263
GUCCUCUUUCACGUCCGCGUGAAAGAGAGAACUGAACCAGAGAAACACACGUUGUGGUAUAUUACCUGGUA [G15C G32C] | 0.0609
GUCCUCUUUCACGUUCGCGUGAAAGAGAGAAGUGAACCAGAGACACACACGUUGUGGUAUAUUACCUGGUA [G15U A44C] | 0.145
GUCCUCUUUCACGUCCGCGUGAAAGAGAGAAGUGAACCAGAGAAACACACGUUGUGGUAUAUUACCUGUUA [G15C G69U] | 0.276
GUCCUCUUUCACGUCCGCGUGAAAGAGAGAAGUGAACCAGAGAAACACACGUUGUGGUAUAUUACCUUGUA [G15C G68U] | 0.235
GUCCUCUUUCACGUCCGCGUGAAAGAGUGAAGUGAACCAGAGAAACACACGUUGUGGUAUAUUACCUGGUA [G15C A28U] | 0.74

Variant | self-cleavage
GUCCUCUUUCACGUCCGCGUGAAAGAGAGAAGUGAACCAGAGAAACACACGUUGUGGUAUAUUACUUGGUA [G15C C66U] | 0.555
GUCCUCUUUCACGUUCGCGUGAAUGAGAGAAGUGAACCAGAGAAACACACGUUGUGGUAUAUUACCUGGUA [G15U A24U] | 0.957
GUCCUCUUUCACGUUCGCGUGAAAGAGAGAAGUGAGCCAGAGAAACACACGUUGUGGUAUAUUACCUGGUA [G15U A36G] | 1.25
GUCCUCUUUCACGUCCGCGUGAAAGAGAGAAGUGAACCAGAGCAACACACGUUGUGGUAUAUUACCUGGUA [G15C A43C] | 0.225
GUCCUCUUUCACGUCCGCGGGAAAGAGAGAAGUGAACCAGAGAAACACACGUUGUGGUAUAUUACCUGGUA [G15C U20G] | 0.828
GUCCUCUUUCACGUCCGCGCGAAAGAGAGAAGUGAACCAGAGAAACACACGUUGUGGUAUAUUACCUGGUA [G15C U20C] | 0.997
GUCCUCUUUCACGUUCGCGUGAAAGAGAGAAGUGAACCAGAGAAACACACGUUGUGGUCUAUUACCUGGUA [G15U A59C] | 0.11
GUCCUCUUUCACGUCCGCGUGAAAGAGAGGAGUGAACCAGAGAAACACACGUUGUGGUAUAUUACCUGGUA [G15C A30G] | 0.198
GUCCUCUUUCACGUCCGCGUGAAAGAGAGCAGUGAACCAGAGAAACACACGUUGUGGUAUAUUACCUGGUA [G15C A30C] | 0.377
GUCCUCUUUCACGUCCGCGUGAAAGAGAGAAGUGAACCAGAGAAACACACGUUGUGGUAUAUUACCAGGUA [G15C U67A] | 0.112
GUCCUCUUUCACGUCCGCGUGAAAGAGAGAAGUGAACCAGAGAAACACACGUUGUGGUAUAUUACCCGGUA [G15C U67C] | 0.2
GUCCUCUUUCACGUCCGCGUGAAAGAGAGAAGUGAACCAAAGAAACACACGUUGUGGUAUAUUACCUGGUA [G15C G40A] | 0.315
GUCCUCUUUCACGUCCGCGUGAAAGAGAGAAGUGAACCAGAAAAACACACGUUGUGGUAUAUUACCUGGUA [G15C G42A] | 0.0806
GUCCUCUUUCACGUCCGCGUGAAAGAGAGAAGUGAACCAGAGAAACACACGUUGUGGUAUCUUACCUGGUA [G15C A61C] | 0.0894
GUCCUCUUUCACGUCCGCGUGAAAGAGAGAAGUGAACCAGAGAAACGCACGUUGUGGUAUAUUACCUGGUA [G15C A47G] | 0.108
GUCCUCUUUCACGUCCGCGUGAAAGAGAGAAGUGAACCAGAGAUACACACGUUGUGGUAUAUUACCUGGUA [G15C A44U] | 0.18
GUCCUCUUUCACGUCCGCGUGAAAGAGAGAAGUGAACCAGAGACACACACGUUGUGGUAUAUUACCUGGUA [G15C A44C] | 0.0713
GUCCUCUUUCACGUUUGCGUGAAAGAGAGAAGUGAACCAGAGAAACACACGUUGUGGUAUAUUACCUGGUA [G15U C16U] | 0.937
GUCCUCUUUCACGUCCGCGUGAAAGAGAGAAGUGAACCGGAGAAACACACGUUGUGGUAUAUUACCUGGUA [G15C A39G] | 0.304
